Experimental data reported in the supplement of paper PMC9112550, “Optimization of the antimicrobial peptide Bac7 by deep mutational scanning” (BMC Biology, 2022).

System: Escherichia coli TOP10
Assay: shrunken log2 fold change of peptide-encoding DNA abundance (4.5 h post-induction vs induction); higher = less antimicrobial activity (less host growth inhibition)
Settings: time post-induction: 4.5 h; library: site-saturation at positions 5, 18, 19, 20
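Further: peptides expressed intracellularly from a pBAD plasmid library in pooled LB shake-flask culture, induced with 0.3% L-arabinose, DNA abundance read by NGS, three biological replicates, DESeq2 with apeglm shrinkage.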

| Sequence | shrunken log2 fold change |
| --- | --- |
| RRIRMRPPRLPRPRPRPNPCPRP | 0.169 |
| RRIRRRPPRLPRPRPRPPSSPRP | 0.303 |
| RRIRYRPPRLPRPRPRPTTRPRP | -0.193 |
| RRIRCRPPRLPRPRPRPNHFPRP | -0.484 |
| RRIRTRPPRLPRPRPRPHPYPRP | 0.0733 |
| RRIRNRPPRLPRPRPRPEWSPRP | 0.406 |
| RRIRARPPRLPRPRPRPDYPPRP | -0.0306 |
| RRIRYRPPRLPRPRPRPHASPRP | 0.0262 |
| RRIRERPPRLPRPRPRPHWLPRP | -0.128 |
| RRIRNRPPRLPRPRPRPMIIPRP | 0.0546 |
| RRIRKRPPRLPRPRPRPPLFPRP | 0.321 |
| RRIRTRPPRLPRPRPRPGSCPRP | 0.083 |
| RRIRCRPPRLPRPRPRPCCMPRP | -0.392 |
| RRIRFRPPRLPRPRPRPCSGPRP | -0.427 |
| RRIRMRPPRLPRPRPRPLMGPRP | -0.0985 |
| RRIRWRPPRLPRPRPRPQSTPRP | 0.02 |
| RRIRARPPRLPRPRPRPMTVPRP | -0.0938 |
| RRIRTRPPRLPRPRPRPINMPRP | -0.0135 |
| RRIRVRPPRLPRPRPRPKCVPRP | -0.0921 |
| RRIRCRPPRLPRPRPRPNLKPRP | -0.585 |
| RRIRGRPPRLPRPRPRPSKFPRP | 0.0363 |
| RRIRMRPPRLPRPRPRPSKCPRP | -0.0848 |
| RRIRSRPPRLPRPRPRPWNFPRP | -0.0212 |

| Sequence | shrunken log2 fold change |
| --- | --- |
| RRIRERPPRLPRPRPRPMMVPRP | 0.0544 |
| RRIRVRPPRLPRPRPRPGEVPRP | 0.101 |
| RRIRSRPPRLPRPRPRPPPNPRP | 0.707 |
| RRIRFRPPRLPRPRPRPTMSPRP | -0.236 |
| RRIRNRPPRLPRPRPRPKTWPRP | 0.0949 |
| RRIRKRPPRLPRPRPRPNDGPRP | -0.0887 |
| RRIRVRPPRLPRPRPRPRHRPRP | 0.0675 |
| RRIRDRPPRLPRPRPRPACCPRP | 0.512 |
| RRIRVRPPRLPRPRPRPCGWPRP | 0.302 |
| RRIRFRPPRLPRPRPRPTWCPRP | -0.0549 |
| RRIRSRPPRLPRPRPRPKYVPRP | -0.527 |
| RRIRDRPPRLPRPRPRPAMHPRP | 0.527 |
| RRIRDRPPRLPRPRPRPVIKPRP | 0.0149 |
| RRIRNRPPRLPRPRPRPYYFPRP | -0.695 |
| RRIRVRPPRLPRPRPRPVANPRP | -0.0212 |
| RRIRGRPPRLPRPRPRPFHRPRP | -0.118 |
| RRIRHRPPRLPRPRPRPSWYPRP | -0.152 |
| RRIRNRPPRLPRPRPRPADEPRP | -0.00151 |
| RRIRLRPPRLPRPRPRPPNTPRP | 0.00316 |
| RRIRKRPPRLPRPRPRPLHEPRP | 1.06 |
| RRIRFRPPRLPRPRPRPCTQPRP | -0.549 |
| RRIRRRPPRLPRPRPRPAHNPRP | 0.344 |
| RRIRRRPPRLPRPRPRPAMPPRP | 0.396 |

| Sequence | shrunken log2 fold change |
| --- | --- |
| RRIRRRPPRLPRPRPRPDCIPRP | 0.0761 |
| RRIRCRPPRLPRPRPRPVLAPRP | -0.0206 |
| RRIRQRPPRLPRPRPRPGYYPRP | -0.476 |
| RRIRARPPRLPRPRPRPAIWPRP | 0.709 |
| RRIRHRPPRLPRPRPRPCFPPRP | -0.517 |
| RRIRGRPPRLPRPRPRPENKPRP | 0.32 |
| RRIRSRPPRLPRPRPRPKMQPRP | 0.055 |
| RRIRWRPPRLPRPRPRPNTAPRP | 0.055 |
| RRIRSRPPRLPRPRPRPEKNPRP | 0.312 |
| RRIRARPPRLPRPRPRPWDNPRP | 0.0421 |
| RRIRLRPPRLPRPRPRPEEGPRP | -0.115 |
| RRIRHRPPRLPRPRPRPTFNPRP | -0.612 |
| RRIRTRPPRLPRPRPRPSVVPRP | -0.384 |
| RRIRTRPPRLPRPRPRPCWTPRP | -0.442 |
| RRIRVRPPRLPRPRPRPRNKPRP | -0.136 |
| RRIRSRPPRLPRPRPRPHWIPRP | -0.279 |
| RRIRTRPPRLPRPRPRPQWPPRP | 0.0505 |
| RRIRARPPRLPRPRPRPPSVPRP | 0.479 |
| RRIRFRPPRLPRPRPRPCFWPRP | 0.0499 |
| RRIRCRPPRLPRPRPRPAQTPRP | 0.0194 |
| RRIRVRPPRLPRPRPRPRSYPRP | -0.0987 |
| RRIRDRPPRLPRPRPRPTCQPRP | 1.08 |
| RRIRWRPPRLPRPRPRPMYMPRP | 0.0903 |

| Sequence | shrunken log2 fold change |
| --- | --- |
| RRIRARPPRLPRPRPRPGIVPRP | 0.174 |
| RRIRVRPPRLPRPRPRPPWIPRP | 0.218 |
| RRIRWRPPRLPRPRPRPHPGPRP | -0.0288 |
| RRIRWRPPRLPRPRPRPWSLPRP | 0.0526 |
| RRIRPRPPRLPRPRPRPDPPPRP | 0.249 |
| RRIRHRPPRLPRPRPRPLYGPRP | -0.214 |
| RRIRMRPPRLPRPRPRPSPPPRP | 0.74 |
| RRIRWRPPRLPRPRPRPTITPRP | -0.335 |
| RRIRLRPPRLPRPRPRPDQGPRP | -0.034 |
| RRIRMRPPRLPRPRPRPEWTPRP | 0.749 |
| RRIRFRPPRLPRPRPRPYCFPRP | -0.615 |
| RRIRMRPPRLPRPRPRPEEVPRP | 0.00922 |
| RRIRPRPPRLPRPRPRPYYCPRP | -0.718 |
| RRIRFRPPRLPRPRPRPMDYPRP | -0.00172 |
| RRIRERPPRLPRPRPRPMKDPRP | 0.13 |
| RRIRTRPPRLPRPRPRPKDQPRP | -0.0284 |
| RRIRARPPRLPRPRPRPCAAPRP | 0.893 |
| RRIRVRPPRLPRPRPRPLCCPRP | -0.0983 |
| RRIRKRPPRLPRPRPRPAMGPRP | 0.14 |
| RRIRFRPPRLPRPRPRPWYKPRP | -0.145 |
| RRIRRRPPRLPRPRPRPQDFPRP | -0.078 |
| RRIRKRPPRLPRPRPRPQVIPRP | 0.108 |
